Measured values reported in publication PMC9482650, “Quantitative fragmentomics allow affinity mapping of interactomes” (Nature Communications, 2022).

T1: PARD3B_1, Q8TEW8
T1 sequence (Q8TEW8 196-299, limits assumed, looked up): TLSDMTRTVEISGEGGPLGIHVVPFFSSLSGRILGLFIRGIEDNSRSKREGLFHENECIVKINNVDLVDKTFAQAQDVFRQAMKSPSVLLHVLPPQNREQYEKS

T2: SYNJ2BP, P57105
T2 sequence (P57105 8-110, limits assumed, looked up): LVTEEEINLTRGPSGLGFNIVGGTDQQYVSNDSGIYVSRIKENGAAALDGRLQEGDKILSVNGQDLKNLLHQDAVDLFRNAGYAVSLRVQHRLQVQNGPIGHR

T3: GRIP1_5, Q9Y3R0
T3 sequence (Q9Y3R0 568-668, limits assumed, looked up): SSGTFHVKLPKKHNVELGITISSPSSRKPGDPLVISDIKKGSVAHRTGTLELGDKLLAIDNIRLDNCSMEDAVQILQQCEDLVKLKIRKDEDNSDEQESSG

T4: TJP3_3, O95049
T4 sequence (O95049 375-456, limits assumed, looked up): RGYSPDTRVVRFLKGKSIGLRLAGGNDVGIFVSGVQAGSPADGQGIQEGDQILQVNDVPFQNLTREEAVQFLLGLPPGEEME

T5: RADIL, Q96JH8
T5 sequence (Q96JH8 971-1071, limits assumed, looked up): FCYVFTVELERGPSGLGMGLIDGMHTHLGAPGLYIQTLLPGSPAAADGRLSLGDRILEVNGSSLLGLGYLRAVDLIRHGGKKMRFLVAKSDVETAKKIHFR

T6: LIN7C, Q9NUP9
T6 sequence (Q9NUP9 88-185, limits assumed, looked up): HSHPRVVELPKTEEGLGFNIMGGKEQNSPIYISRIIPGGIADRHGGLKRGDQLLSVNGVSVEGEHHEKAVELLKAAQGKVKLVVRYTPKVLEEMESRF

T7: SHANK1, Q9Y566
T7 sequence (Q9Y566 658-767, limits assumed, looked up): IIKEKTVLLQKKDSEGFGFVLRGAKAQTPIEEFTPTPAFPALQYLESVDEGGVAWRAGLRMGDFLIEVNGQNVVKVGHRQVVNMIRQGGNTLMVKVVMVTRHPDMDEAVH

T8: DLG3_1, Q92796
T8 sequence (Q92796 125-227, limits assumed, looked up): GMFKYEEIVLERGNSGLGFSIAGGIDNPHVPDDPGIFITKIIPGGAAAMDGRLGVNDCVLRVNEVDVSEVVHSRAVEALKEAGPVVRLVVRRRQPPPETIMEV

T9: LIN7A, O14910
T9 sequence (O14910 103-200, limits assumed, looked up): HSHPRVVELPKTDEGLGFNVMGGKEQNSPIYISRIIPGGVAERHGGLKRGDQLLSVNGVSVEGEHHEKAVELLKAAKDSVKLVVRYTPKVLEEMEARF

T10: APBA1_2, Q02410
T10 sequence (Q02410 742-832, limits assumed, looked up): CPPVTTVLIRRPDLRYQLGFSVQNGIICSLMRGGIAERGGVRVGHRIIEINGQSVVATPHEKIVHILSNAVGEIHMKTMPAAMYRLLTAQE


Assays:
Experiment in all cases: holdup assay
Parameters in all cases: key: below the threshold = too weak to quantify, mostly under pKd 3.1 to 4
Conditions in all cases: plain residues with an end cap or a label only (N-terminal biotin on a linker: ado-ado)
NHERF2_2, Q15599 = target: NHERF2_2, Q15599
PARD3B_1, Q8TEW8 = target: T1, PARD3B_1, Q8TEW8
MAGI1_1, Q96QZ7 = target: MAGI1_1, Q96QZ7
SYNJ2BP, P57105 = target: T2, SYNJ2BP, P57105
GRIP1_5, Q9Y3R0 = target: T3, GRIP1_5, Q9Y3R0
HTRA2, O43464 = target: HTRA2, O43464
MAGI2_5, Q86UL8 = target: MAGI2_5, Q86UL8
MAST1, Q9Y2H9 = target: MAST1, Q9Y2H9
GORASP1, Q9BQQ3 = target: GORASP1, Q9BQQ3
PTPN3, P26045 = target: PTPN3, P26045
DLG1_1, Q12959 = target: DLG1_1, Q12959
TJP3_3, O95049 = target: T4, TJP3_3, O95049
RADIL, Q96JH8 = target: T5, RADIL, Q96JH8
DLG4_2, P78352 = target: DLG4_2, P78352
GRIP2_3, Q9C0E4 = target: GRIP2_3, Q9C0E4
LIN7C, Q9NUP9 = target: T6, LIN7C, Q9NUP9
SHANK1, Q9Y566 = target: T7, SHANK1, Q9Y566
DLG2_2, Q15700 = target: DLG2_2, Q15700
MAGI1_2, Q96QZ7 = target: MAGI1_2, Q96QZ7
DLG3_1, Q92796 = target: T8, DLG3_1, Q92796
LIN7A, O14910 = target: T9, LIN7A, O14910
AHNAK1, Q09666 = target: AHNAK1, Q09666
PARD3_3, Q8TEW0 = target: PARD3_3, Q8TEW0
Inadl_9, Q8NI35 = target: Inadl_9, Q8NI35
APBA1_2, Q02410 = target: T10, APBA1_2, Q02410
Inadl_2, Q8NI35 = target: Inadl_2, Q8NI35
Inadl_1, Q8NI35 = target: Inadl_1, Q8NI35
Inadl_1, Q8NI35, sequence (Q8NI35 113-229): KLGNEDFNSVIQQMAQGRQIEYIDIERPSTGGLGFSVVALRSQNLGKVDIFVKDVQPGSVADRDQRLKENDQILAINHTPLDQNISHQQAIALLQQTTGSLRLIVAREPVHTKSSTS

DLG2_2, Q15700, sequence (Q15700 189-283): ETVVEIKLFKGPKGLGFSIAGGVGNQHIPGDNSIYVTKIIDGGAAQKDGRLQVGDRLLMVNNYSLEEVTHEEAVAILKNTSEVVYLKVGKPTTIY
MAGI1_2, Q96QZ7, sequence (Q96QZ7 456-580): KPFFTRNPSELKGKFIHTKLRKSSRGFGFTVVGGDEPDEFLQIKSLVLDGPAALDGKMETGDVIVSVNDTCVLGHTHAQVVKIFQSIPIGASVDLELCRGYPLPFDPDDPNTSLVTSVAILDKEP
Inadl_9, Q8NI35, sequence (Q8NI35 1530-1615): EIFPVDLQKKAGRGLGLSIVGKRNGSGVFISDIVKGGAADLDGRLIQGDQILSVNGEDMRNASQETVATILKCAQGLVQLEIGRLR
DLG4_2, P78352, sequence (P78352 155-259): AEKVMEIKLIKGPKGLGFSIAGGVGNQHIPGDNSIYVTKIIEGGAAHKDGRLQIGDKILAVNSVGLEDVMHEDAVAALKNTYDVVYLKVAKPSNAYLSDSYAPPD
MAGI1_1, Q96QZ7, sequence (Q96QZ7 1-106): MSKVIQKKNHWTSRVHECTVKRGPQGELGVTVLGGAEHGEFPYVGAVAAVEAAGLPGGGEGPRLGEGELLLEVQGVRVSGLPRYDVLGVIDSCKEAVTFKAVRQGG
PARD3_3, Q8TEW0, sequence (Q8TEW0 582-685): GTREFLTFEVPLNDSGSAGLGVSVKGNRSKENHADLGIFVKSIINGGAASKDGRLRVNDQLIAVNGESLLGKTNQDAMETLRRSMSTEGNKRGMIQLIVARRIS
GORASP1, Q9BQQ3, sequence (Q9BQQ3 1-208): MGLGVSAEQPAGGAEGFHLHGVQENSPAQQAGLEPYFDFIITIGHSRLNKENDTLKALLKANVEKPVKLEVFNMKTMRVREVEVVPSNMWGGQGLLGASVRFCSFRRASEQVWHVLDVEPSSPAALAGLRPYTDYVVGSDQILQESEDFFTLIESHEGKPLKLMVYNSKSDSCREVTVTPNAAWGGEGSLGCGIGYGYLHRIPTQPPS
HTRA2, O43464, sequence (O43464 355-458): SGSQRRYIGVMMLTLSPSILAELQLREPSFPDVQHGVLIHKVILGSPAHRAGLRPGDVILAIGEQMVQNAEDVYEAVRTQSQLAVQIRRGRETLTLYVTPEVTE
GRIP2_3, Q9C0E4, sequence (Q9C0E4 238-339): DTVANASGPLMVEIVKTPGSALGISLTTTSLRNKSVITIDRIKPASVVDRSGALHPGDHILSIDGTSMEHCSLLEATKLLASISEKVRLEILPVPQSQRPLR
AHNAK1, Q09666, sequence (Q09666 4-100): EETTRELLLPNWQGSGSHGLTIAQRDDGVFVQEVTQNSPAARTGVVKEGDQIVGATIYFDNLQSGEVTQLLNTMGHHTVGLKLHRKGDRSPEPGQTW
NHERF2_2, Q15599, sequence (Q15599 142-238): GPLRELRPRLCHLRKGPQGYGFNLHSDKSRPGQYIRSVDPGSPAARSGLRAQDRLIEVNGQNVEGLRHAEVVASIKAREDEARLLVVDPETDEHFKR
Inadl_2, Q8NI35, sequence (Q8NI35 238-335): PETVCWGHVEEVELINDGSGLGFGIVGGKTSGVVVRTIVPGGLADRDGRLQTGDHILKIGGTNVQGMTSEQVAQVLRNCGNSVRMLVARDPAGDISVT
MAST1, Q9Y2H9, sequence (Q9Y2H9 962-1065): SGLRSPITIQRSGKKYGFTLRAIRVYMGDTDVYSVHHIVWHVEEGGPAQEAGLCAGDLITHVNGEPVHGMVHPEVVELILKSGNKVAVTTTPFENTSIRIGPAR
MAGI2_5, Q86UL8, sequence (Q86UL8 915-1017): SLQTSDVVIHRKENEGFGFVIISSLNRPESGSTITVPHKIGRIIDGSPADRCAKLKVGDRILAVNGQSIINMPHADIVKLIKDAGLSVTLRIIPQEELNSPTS
PTPN3, P26045, sequence (P26045 505-587): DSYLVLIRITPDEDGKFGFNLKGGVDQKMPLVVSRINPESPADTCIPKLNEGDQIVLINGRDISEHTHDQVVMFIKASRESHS

pKd (NHERF2_2, Q15599) | pKd (PARD3B_1, Q8TEW8) | pKd (MAGI1_1, Q96QZ7) | pKd (SYNJ2BP, P57105) | pKd (GRIP1_5, Q9Y3R0) | pKd (HTRA2, O43464) | pKd (MAGI2_5, Q86UL8) | pKd (MAST1, Q9Y2H9) | pKd (GORASP1, Q9BQQ3) | pKd (PTPN3, P26045) | pKd (DLG1_1, Q12959) | pKd (TJP3_3, O95049) | pKd (RADIL, Q96JH8) | pKd (DLG4_2, P78352) | pKd (GRIP2_3, Q9C0E4) | pKd (LIN7C, Q9NUP9) | pKd (SHANK1, Q9Y566) | pKd (DLG2_2, Q15700) | pKd (MAGI1_2, Q96QZ7) | pKd (DLG3_1, Q92796) | Binder | further results
below the threshold | 4.73 | below the threshold | below the threshold | below the threshold | 4.2 | below the threshold | 3.95 | 4.44 | 3.96 | 3.6 | 4.1 | 4.94 | 3.73 | below the threshold | below the threshold | below the threshold | below the threshold | 4.28 | below the threshold | SFISKKEWYV [NECTIN1, Q15223] | pKd (LIN7A, O14910): below the threshold; pKd (AHNAK1, Q09666): below the threshold; pKd (PARD3_3, Q8TEW0): 4.53; pKd (Inadl_9, Q8NI35): 4.28; pKd (APBA1_2, Q02410): 3.82; pKd (Inadl_2, Q8NI35): 4.8; pKd (Inadl_1, Q8NI35): 3.91
4.67 | 3.84 | below the threshold | below the threshold | below the threshold | below the threshold | 3.75 | 4.64 | below the threshold | below the threshold | below the threshold | below the threshold | below the threshold | below the threshold | below the threshold | below the threshold | 5.62 | below the threshold | below the threshold | below the threshold | LKDDELKTKL [SLCO1A2, P46721] | pKd (LIN7A, O14910): below the threshold; pKd (AHNAK1, Q09666): below the threshold; pKd (PARD3_3, Q8TEW0): below the threshold; pKd (Inadl_9, Q8NI35): below the threshold; pKd (APBA1_2, Q02410): below the threshold; pKd (Inadl_2, Q8NI35): below the threshold; pKd (Inadl_1, Q8NI35): below the threshold
below the threshold | below the threshold | below the threshold | below the threshold | below the threshold | below the threshold | 3.6 | 3.62 | below the threshold | 4.23 | below the threshold | below the threshold | below the threshold | below the threshold | below the threshold | 3.84 | below the threshold | below the threshold | below the threshold | below the threshold | DRIQSCLSDA [SBF1, O95248] | pKd (LIN7A, O14910): below the threshold; pKd (AHNAK1, Q09666): below the threshold; pKd (PARD3_3, Q8TEW0): below the threshold; pKd (Inadl_9, Q8NI35): below the threshold; pKd (APBA1_2, Q02410): below the threshold; pKd (Inadl_2, Q8NI35): below the threshold; pKd (Inadl_1, Q8NI35): below the threshold
